Target: Fzd4 (Homo sapiens (Human)) (UniProt Q9ULV1)
Assay: cell-based or functional assay

UniProt Q9ULV1, sequence (Q9ULV1 37-537 limits assumed, form in doubt): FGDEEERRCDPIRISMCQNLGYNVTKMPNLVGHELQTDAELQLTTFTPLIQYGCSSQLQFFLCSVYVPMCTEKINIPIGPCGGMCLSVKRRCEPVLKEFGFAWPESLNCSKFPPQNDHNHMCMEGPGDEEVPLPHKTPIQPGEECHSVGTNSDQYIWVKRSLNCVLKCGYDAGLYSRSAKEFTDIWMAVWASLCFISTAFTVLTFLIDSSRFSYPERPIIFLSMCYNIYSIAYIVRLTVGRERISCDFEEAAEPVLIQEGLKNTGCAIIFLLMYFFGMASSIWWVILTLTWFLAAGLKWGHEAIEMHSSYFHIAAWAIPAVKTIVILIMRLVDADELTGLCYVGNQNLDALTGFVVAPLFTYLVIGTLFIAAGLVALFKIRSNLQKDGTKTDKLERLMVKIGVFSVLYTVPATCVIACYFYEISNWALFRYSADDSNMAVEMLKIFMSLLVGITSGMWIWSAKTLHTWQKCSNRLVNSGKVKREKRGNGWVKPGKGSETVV

Topflash reporter activity (firefly divided by renilla), cells overexpressing TSPAN12 against control cells, 10 nM recombinant Norrin: 4 fold
Substance: recombinant Norrin (ligand)

From patent US20150093375A1
